Among the data in PMC11806106 are EC50 of Go activation (BRET-based activity sensor Go1-case), EC50 of agonist-induced arrestin3 interaction with MOR-nLuc (BRET, with GRK2) and EC50 of the agonist-induced change of the BRET ratio of the MOR BRET conformation sensor values, retold here.

Experiment [1] has as its target rat µ opioid receptor (MOR-wt) (rat) (UniProt P33535).
In experiment [2] the target is MOR-nLuc (rat µ opioid receptor, wild type, with C-terminal nLuc) (rat) (UniProt P33535).
Experiment [3] concerns the target MOR BRET sensor (G267-MOR sensor with mTurq2 replaced by nLuc2) (rat) (UniProt P33535).

The substance DAMGO (peptide) came in with an EC50 of Go activation (BRET-based activity sensor Go1-case) in experiment [1] of 2.92 nM. In addition, in experiment [2], the EC50 of agonist-induced arrestin3 interaction with MOR-nLuc (BRET, with GRK2) turned out to be 282 nM. Further, in experiment [3], the EC50 of the agonist-induced change of the BRET ratio of the MOR BRET conformation sensor is 445 nM.
